In article PMC7744049 one finds pseudovirus neutralization assay (SARS-CoV spike on pseudovirus), IC50 data, which are given here for one substance.

In the assay the target is SARS-CoV RBD (residues 306-527 of the spike protein) (SARS-CoV) (UniProt P59594).

In the case of CR3022 IgG (antibody), the pseudovirus neutralization assay (SARS-CoV spike on pseudovirus), IC50 was 5.2 µg/mL.
